# Results taken from publication PMC4865371, “ESCRT-III activation by parallel action of ESCRT-I/II and ESCRT-0/Bro1 during MVB biogenesis” (eLife, 2016).
# Molecular target: the molecule itself
# Test: negative stain transmission electron microscopy; purified recombinant Snf7 protein alone; protofilament assembly looked for
row,Protein,binding result
1,"Snf7^1-225 (α6 truncated Snf7) (domain or fragment, Saccharomyces cerevisiae, UniProt P39929 1-225, looked up, Snf7/Vps32, Saccharomyces cerevisiae, residues 1-225, lacks the C-terminal α6 helix; source: recombinant, purified as described (Buchkovich et al., 2013; Henne et al., 2012; Tang et al., 2015)) MWSSLFGWTSSNAKNKESPTKAIVRLREHINLLSKKQSHLRTQITNQENEARIFLTKGNKVMAKNALKKKKTIEQLLSKVEGTMESMEQQLFSIESANLNLETMRAMQEGAKAMKTIHSGLDIDKVDETMDEIREQVELGDEISDAISRPLITGANEVDEDELDEELDMLAQENANQETSKIVNNNVNAAPISENKVSLPSVPSNKIKQSENSVKDGEEEEDEED",binds
2,"Snf7^Q90L (natural protein, Saccharomyces cerevisiae, UniProt P39929 1-240, looked up, Snf7/Vps32, Saccharomyces cerevisiae, with the point mutation Q90L found in the vps20Δ suppressor screen; source: recombinant, purified as described (Buchkovich et al., 2013; Henne et al., 2012; Tang et al., 2015)) MWSSLFGWTSSNAKNKESPTKAIVRLREHINLLSKKQSHLRTQITNQENEARIFLTKGNKVMAKNALKKKKTIEQLLSKVEGTMESMEQLLFSIESANLNLETMRAMQEGAKAMKTIHSGLDIDKVDETMDEIREQVELGDEISDAISRPLITGANEVDEDELDEELDMLAQENANQETSKIVNNNVNAAPISENKVSLPSVPSNKIKQSENSVKDGEEEEDEEDEDEKALRELQAEMGL",binds
